This is an account of results in article PMC7956722 (Molecules, 2021).

Data set [1] relates to bladder carcinogenesis. More on the design: method as in PMID 8551710. Conditions: cited from earlier work.
Excerpt: The effects of the androgen regulation system and LHRH agonist on bladder carcinogenesis have been investigated in animals [10].
The target in data set [2] is T1, LHRH receptors (membrane receptors of human bladder cancer cells) (Homo sapiens, UniProt P30968).
T1 construct: membrane homogenates of bladder cancer specimens containing 60–150 µg protein were incubated in duplicate; from tissue; host or cells: surgically resected human bladder cancer (transitional cell carcinoma) tissue, crude membrane fractions
T1 sequence (P30968 1-328): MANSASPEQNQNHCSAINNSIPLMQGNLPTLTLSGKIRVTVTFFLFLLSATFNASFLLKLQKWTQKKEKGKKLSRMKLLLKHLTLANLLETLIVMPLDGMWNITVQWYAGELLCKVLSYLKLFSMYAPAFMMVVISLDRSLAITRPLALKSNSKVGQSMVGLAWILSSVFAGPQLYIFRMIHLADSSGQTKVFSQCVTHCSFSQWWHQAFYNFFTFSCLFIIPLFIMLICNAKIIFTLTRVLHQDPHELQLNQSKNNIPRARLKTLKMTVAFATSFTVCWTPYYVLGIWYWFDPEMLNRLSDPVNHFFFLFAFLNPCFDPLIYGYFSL
As to the kind of experiment: Ligand competition assay: displacement of [125I][D-Trp6]LHRH by unlabeled peptides. The note with it: for displacement of [125I][D-Trp6]LHRH by unrelated peptides: membrane fractions of human bladder cancer specimens, increasing concentrations, mean of duplicate or triplicate determinations. Type of data set: binding. The procedure:
Analysis of the typical displacement of radiolabeled [D-Trp^6] […] Biochemical parameters essential to establish the identity of specific binding sites were also determined.
Each point represents mean of duplicate or triplicate determinations.
The assay was performed as described earlier. […] At the end of the incubation, 125 µL aliquots of suspension were transferred onto the top of 1 mL of ice-cold binding buffer containing 1.5% BSA in microcentrifuge tubes. The tubes were centrifuged at 12,000× g for 3 min at 4 °C. Supernatants were aspirated and the pellet was counted in a gamma counter. Protein concentration was determined by the method of Bradford using a Bio-Rad protein assay kit (Bio-Rad Laboratories, Hercules, CA, USA). The final binding affinities were expressed as IC50 values and were calculated by using the LIGAND-PC computerized curve-fitting program of Munson and Rodbard.

For data set [3], the system named is bladder cancer in nude mice. The note with it: Szepeshazi et al., cited from earlier work. From the text:
(§1) Our findings are in agreement with the results of Bahk et al. (2008). […] However, there is no information about the role of peptide receptors in bladder carcinogenesis. The signaling pathways have the potential to be an important area of bladder cancer research, leading to the development of effective therapeutic approaches.

Data set [4] deals with various human cancers. Conditions: trials completed or terminated; cited from earlier work.
Excerpt: as §1

Data set [5] deals with LHRH-receptor-positive models of human ovarian, mammary, endometrial, and prostatic cancers. The note with it: cited from earlier work.
Data set [6] has as its system metastatic bladder cancer. Conditions: first-line therapy, cisplatin-based chemotherapy; cited from earlier work. The source says: More than 90% of urothelial tumors originate from the urinary bladder, 8% from the renal pelvis, and 2% from the ureter and urethra. Histologically, the majority (around 90%) of bladder cancer is described as the type of TCC and the rest are squamous cell carcinoma, adenocarcinoma, and rarely, small cell carcinoma. Despite advancements in surgical techniques and chemotherapy, the overall survival in metastatic bladder cancer has not improved over the last 20 years. The first-line therapy is cisplatin-based chemotherapy with the response rate of approximately 50% [[4],[31] ...

Data set [7] concerns the target T2, AN-152 (Homo sapiens, pGlu1, D-Lys6 linked through glutaric acid spacer to doxorubicin, C-terminal amide).
T2 chain: QHWSYKLRPG
In words: radioligand competition.

Data set [8] has as its target T3, [D-Lys6]LHRH (Homo sapiens, pGlu1, D-Lys6, C-terminal amide).
T3 chain: QHWSYKLRPG
As to the kind of experiment: radioligand competition.

The target in data set [9] is T4, [125I][D-Trp6]LHRH (Homo sapiens, pGlu1, D-Trp6, C-terminal amide, 125I).
T4 chain: QHWSYWLRPG
In words: radioligand competition (patient 3).

The target in data set [10] is T4, [125I][D-Trp6]LHRH. In words: radioligand competition (patient 7).
The target of data set [11] is T4, [125I][D-Trp6]LHRH. As to the kind of experiment: radioligand competition (patient 8).
For data set [12], the target named is T4, [125I][D-Trp6]LHRH. In words: radioligand competition (patient 6).
Data set [13] deals with T4, [125I][D-Trp6]LHRH. In words: radioligand competition (patient 12).
Data set [14] addresses T4, [125I][D-Trp6]LHRH. As to the kind of experiment: radioligand competition (patient 18).
The target in data set [15] is T4, [125I][D-Trp6]LHRH. As to the kind of experiment: radioligand competition (patient 14).
Data set [16] has as its target T4, [125I][D-Trp6]LHRH. As to the kind of experiment: radioligand competition (patient 10).
Data set [17] addresses T4, [125I][D-Trp6]LHRH. In words: radioligand competition (patient 19).
For data set [18], the target named is T4, [125I][D-Trp6]LHRH. In words: radioligand competition (patient 22).
In data set [19] the target is T4, [125I][D-Trp6]LHRH. As to the kind of experiment: radioligand competition, Scatchard (mean of 10 bladder cancer specimens).

Like-named read-outs stand apart in the source and are kept apart here. Non-standard residues stand in square brackets, D forms with d. Residues, ends and D or L forms follow the SMILES beside them. dPhe(4-Cl) = N[C@H](Cc1ccc(Cl)cc1)C(=O)O; d2Nal = N[C@H](Cc1ccc2ccccc2c1)C(=O)O; dCit = NC(=O)NCCC[C@@H](N)C(=O)O; d3Pal = N[C@H](Cc1cccnc1)C(=O)O

For the molecule `CC(C)C(=O)Nc1ccc([N+](=O)[O-])c(C(F)(F)F)c1` [flutamide], the “effect on bladder carcinogenesis” value in data set [1] was “suppressed the LHRH-induced promotion of carcinogenesis”.

In the case of `COc1cccc2c1C(=O)c1c(O)c3c(c(O)c1C2=O)C[C@@](O)(C(=O)COC(=O)CCCC(=O)NCCCC[C@@H](NC(=O)[C@H](Cc1ccc(O)cc1)NC(=O)[C@H](CO)NC(=O)[C@H](Cc1c[nH]c2ccccc12)NC(=O)[C@H](Cc1c[nH]cn1)NC(=O)[C@@H]1CCC(=O)N1)C(=O)N[C@@H](CC(C)C)C(=O)N[C@@H](CCCNC(=N)N)C(=O)N1CCC[C@H]1C(=O)NCC(N)=O)C[C@@H]3O[C@H]1C[C@H](N)[C@H](O)[C@H](C)O1` [AN-152], the “binding affinity relative to free carrier [D-Lys6]LHRH (in words)” value in [2] (compared with free peptide carrier [D-Lys6]LHRH, human bladder cancer membranes) is recorded as “only slightly lower binding affinity to specific LHRH receptors than the free peptide carrier”. In addition, the “binding to LHRH receptors (in words)” value in data set [2] (displacement of [125I][D-Trp6]LHRH, human bladder cancer membranes) was “could effectively bind to LHRH receptors at low nanomolar concentration”. Further, the “effect compared with DOX” value in data set [3] (bladder cancer in nude mice) is “greater effects than DOX”. In addition, in data set [3] (nude mice), the “growth inhibition of bladder cancer” value is listed as “inhibits powerfully the growth of the bladder cancer in nude mice” and the “toxicity compared with DOX” value is listed as “lesser toxicity”. Besides, in data set [4], the “outcome of clinical trials” value is recorded as “some of these studies did not achieve their primary endpoint”. Also, in data set [5] (human ovarian, mammary, endometrial, prostatic cancers xenografted into nude mice), the “inhibition of tumor growth in vivo versus respective radicals” value is “much more effective in vivo than their respective radicals in inhibiting tumor growth”. For the same molecule, in data set [5] (nude mice), the “toxicity versus respective radicals” value is on record as “less toxic”.

`CC(=O)N[C@H](Cc1ccc2ccccc2c1)C(=O)N[C@H](Cc1ccc(Cl)cc1)C(=O)N[C@H](Cc1cccnc1)C(=O)N[C@@H](CO)C(=O)N[C@@H](Cc1ccc(O)cc1)C(=O)N[C@H](CCCNC(N)=O)C(=O)N[C@@H](CC(C)C)C(=O)N[C@@H](CCCNC(=N)N)C(=O)N1CCC[C@H]1C(=O)N[C@H](C)C(N)=O` [Cetrorelix] (Ac-[d2Nal][dPhe(4-Cl)][d3Pal]SY[dCit]LRP[dA]-NH2) came in with an IC50 in [2] of 0.86 nM.

With “human growth hormone (hGH): unrelated peptide”, the “displacement of [125I][D-Trp6]LHRH by unrelated peptides” value (“displacement of [125I][D-Trp6]LHRH” below) in [2] is “did not displace the radioligand”.

Regarding “vasoactive intestinal peptide (VIP): unrelated peptide”, the “displacement of [125I][D-Trp6]LHRH” value in [2] was “did not displace the radioligand”.

In the case of somatostatin: unrelated peptide, in data set [2], the “displacement of [125I][D-Trp6]LHRH” value was “did not displace the radioligand”.

In the case of “growth hormone-releasing hormone (GHRH): unrelated peptide”, in data set [2], the “displacement of [125I][D-Trp6]LHRH” value was “did not displace the radioligand”.

With `CC(C)C[C@H](NC(=O)[C@@H](CCCCN)NC(=O)[C@H](Cc1ccc(O)cc1)NC(=O)[C@H](CO)NC(=O)[C@H](Cc1c[nH]c2ccccc12)NC(=O)[C@H](Cc1cnc[nH]1)NC(=O)[C@@H]1CCC(=O)N1)C(=O)N[C@@H](CCCNC(=N)N)C(=O)N1CCC[C@H]1C(=O)NCC(N)=O` [[D-Lys^6]LHRH], the half-inhibitory concentration (IC50) in [2] (read-out: Receptor binding potency (IC50)) is 0.98 nM.

Consider “epidermal growth factor: unrelated peptide”, for which the “displacement of [125I][D-Trp6]LHRH” value in data set [2] is “did not displace the radioligand”.

For the molecule `N.N.[Cl][Pt][Cl]` [cisplatin], the response rate entry in data set [6] was “approximately 50%”.

B1: LHRH receptor type I (protein)
chain: MANSASPEQNQNHCSAINNSIPLMQGNLPTLTLSGKIRVTVTFFLFLLSATFNASFLLKLQKWTQKKEKGKKLSRMKLLLKHLTLANLLETLIVMPLDGMWNITVQWYAGELLCKVLSYLKLFSMYAPAFMMVVISLDRSLAITRPLALKSNSKVGQSMVGLAWILSSVFAGPQLYIFRMIHLADSSGQTKVFSQCVTHCSFSQWWHQAFYNFFTFSCLFIIPLFIMLICNAKIIFTLTRVLHQDPHELQLNQSKNNIPRARLKTLKMTVAFATSFTVCWTPYYVLGIWYWFDPEMLNRLSDPVNHFFFLFAFLNPCFDPLIYGYFSL
For B1, the concentration for half-maximal inhibition (IC50) is 1.39 nM in [7] and 0.98 nM in data set [8]. In addition, the dissociation constant Kd amounted to 5.76 nM in [9]; 4.94 nM in data set [10]; 6.26 nM in data set [11]; 6.85 nM in data set [12]; 3.61 nM in data set [13]; 4.38 nM in data set [14]. Also, the Kd amounted to 4.92 nM in data set [15]; 5.02 nM in [16]; 3.83 nM in data set [17]; 4.31 nM in [18]; 4.98 nM in data set [19].
